From the Human Domainome abundance scans (Beltran et al. 2025)

B1: Syntaxin-binding protein 4, residues 493 to 538; numbered along this chain, Q6ZWJ1 (parent)
chain: LDMDCLPYGWEEAYTADGIKYFINHVTQTTSWIHPVMSVLNLSRSE

Variants of: B1
Assay: abundance fitness (aPCA) (normalised: wild type 0, dead -1); higher = more abundant; growth selection in yeast, the domain comes from the species named
Conditions: Homo sapiens

Abundance fitness: each site, then its substitutions
G18: V -0.867; D -0.576; S -0.725; C -0.902; M -0.846; E -0.681; Y -0.787; T -0.949; H -0.862; N -0.845; I -0.488; P -0.834; W -0.493; Q -0.661; K -0.453
K20: F -0.919; Q -0.897; N -0.54; T -0.767; Y -0.783; P -0.141; L -0.794; R -0.198; V -0.717; G -0.857; A -0.699; H -0.444; I -0.853; W -0.686; M -0.848; D -0.743; S -0.836; C -0.753
T27: W -0.179; N -0.407; V -0.872; G -0.248; M 0.168; A -0.513; D -0.127; S -0.348; F 0.071; P -0.772; Q -0.344; Y 0.394; K -0.045; R -0.234; I -0.814; H 0.176; E -0.672; L 0.644
Y21: S -0.778; R -0.962; M -1.03; W -0.674; N -0.731; G -0.873; D -0.989; H -1.05; T -0.93; C -0.908; A -0.952; I -0.894; F -0.91; V -0.998; K -0.923; Q -0.544; E -0.953
T29: G -0.777; K -0.759; I 0.226; W -0.556; L -0.969; R -0.594; Q -0.956; Y -0.61; F -0.674; N -0.759; M -0.789; V 0.766; H -0.847; A -0.486; S -0.475; D -0.777; C 0.271
T15: H -0.881; Q -0.706; G -0.561; E -0.859; S -0.672; F -0.883; P -0.531; V -0.862; A -0.801; K -0.938; W -0.814; R -0.698; C -1; Y -0.65; N -0.806; D -0.509; I -0.772
I23: E -1.08; K -0.282; F -0.715; W -0.811; H -0.833; Y -0.209; P -0.4; M -0.733; G -0.889; T -0.786; Q -0.829; C -0.892; D -0.731; S -0.49; A -0.781; N -0.708; L -0.57; R -0.241; V 0.023
A16: M -0.5; E -0.118; N -0.283; L -0.649; W -0.901; C -0.555; R -0.66; Y -0.606; V -0.57; F -0.781; P -0.349; D -0.029; S -0.011; K 0.211; T -0.408; H -0.342; G -0.445; I -0.716; Q -0.182
T30: R -0.719; Y -1; N -0.727; S 0.363; C -0.142; K -0.692; V -0.691; D -0.859; E -0.857; I -0.936; L -0.512; P -0.857; F -0.998; G -0.632; Q -0.624
I19: E 1.09; A 0.708; V 0.054; W -0.566; F -0.352; C 0.348; M 0.313; R 0.428; Q 0.7; D 0.771; Y -0.034; T 0.234; S 0.634; H 0.293; N 0.65; K 0.791; G -0.062; P -0.761
S31: C -0.698; A -0.799; L -0.788; K -0.471; T 0.199; H -0.94; R -0.818; Y -0.879; V -0.373; N -0.953; G -0.454; M -0.989; W -0.922; I -0.633; P -0.788; E -0.724; D -0.89; F -0.734
H25: K 0.25; I -0.754; P -0.236; E -0.502; R 0.108; C -0.824; Y -0.941; V -0.67; W -0.916; L -0.931; D -1.1; G -0.687; F -0.514; T 0.033; N 0.599; A -0.927; S -0.006; M -0.94
D17: V -0.648; T -0.793; G -0.76; P -0.867; L -0.823; S -0.625; I -0.63; K -0.547; A -0.69; M -0.88; R -0.697; F -0.942; N -0.548; Q -0.571; W -0.835; H -0.691; C -0.873; Y -0.881
Y14: A -0.645; Q -0.305; W -0.271; S -0.462; G -0.773; H -0.575; I -0.856; T -0.522; L -0.689; V -0.411; E -0.513; D -0.976; P -1; R -0.389; N -0.994; K -0.907; C -0.586; M -0.614; F -0.659
V26: F -0.294; G 0.022; I -0.038; M -0.29; K -0.29; D -0.087; R -0.096; W -0.846; L -0.482; T 0.168; A 0.058; Q -0.004; H 0.137; S -0.07
F22: G -0.782; I -0.728; M -0.44; R -0.872; Q -0.823; L -0.854; E -0.789; S -0.832; D -0.794; T -0.458; C -0.659; V -0.904; K -0.637; A -0.956; N -0.787; P -0.895
Q28: M 0.031; F -0.422; D -0.467; L -1; A -0.509; C -0.573; H -0.204; N 0.159; R -0.316; V -0.789; W -0.695; K -0.027; E -0.525; G 0.294; I -0.664; P -0.793; S -0.312; T -0.81
E12: Y -0.794
A13: K -0.534; G -0.746; E -0.923; P -0.922; D -1.11; L -0.742; Y -0.914; V -0.686; Q -0.677; S -0.5; C -0.676; H -1.01; W -0.766; T -0.527; R -0.501; N -0.774; F -0.946; I -0.998
N24: D -0.668; C -0.798; F -0.835; H -0.282; V -0.74; G -0.72; Q -0.923; W -0.609; M -0.978; Y -0.638; R -0.876; K -1.12; S -0.93; T -0.909; E -0.715; P -0.837; L -0.932
W32: D -0.539; A -0.787; E -0.628; C -0.346
